The target in assay [1] is T1, human ROR-1 endogenously expressed on JeKo-1 and MDA-MB-468 cells (human, UniProt Q01973 30-937). As to the kind of experiment: cell-based or functional assay.
The target of assay [2] is T2, Hu/Cy/Rh ROR1 - His (human/cynomolgus/rhesus, UniProt Q01973 30-403, limits assumed).
T2 construct: Purified His-tagged protein; also called HUMAN/CYNO/RHESUS ROR-1; not shown: His tag
Nature of the assay: SPR, purified Hu/Cy/Rh ROR1-His. Background: In SPR one partner is held on a chip, and binding of the other changes the refractive index at the surface.

The target in another assay is T3, Mouse ROR1 - His (mouse, UniProt Q9Z139 30-403, limits assumed).
T3 construct: Purified His-tagged protein; not shown: His tag
As to the kind of experiment: SPR, purified Mouse ROR1-His.

The target in assay [3] is T1, human ROR-1 endogenously expressed on …. As to the kind of experiment: cell binding saturation assay, flow cytometry on ROR-1 positive cells; one value told for the group. Background: A flow cytometer gives signals particle by particle.
The target is the same in assay [4]. As to the kind of experiment: flow cytometry, titration on ROR-1 positive JeKo-1 cells, secondary antibody staining, Net MFI.
Assay [5] shares this target. As to the kind of experiment: flow cytometry on MDA-MB-468 cells, titrated antibody detected with a labeled secondary antibody, % Top MFI (cellular binning with 4A5-PE).
For assay [6] the target is unchanged. Nature of the assay: flow cytometry on MDA-MB-468 cells, titrated antibody detected with a labeled secondary antibody, % Top MFI (cellular binning with Dy650-UC961).
The target is the same in assay [7]. Nature of the assay: competition on MDA-MB-468 cells by flow cytometry: ATX-P-885 titrated first, then a saturating dose of labeled UC961 (Dy650-UC961) as the competed antibody.
For assay [8] the target is unchanged. As to the kind of experiment: competition on MDA-MB-468 cells by flow cytometry: ATX-P-875 titrated first, then a saturating dose of labeled 4A5 (4A5-PE) as the competed antibody.
Assay [9] addresses T2, Hu/Cy/Rh ROR1 - His. As to the kind of experiment: SPR (Carterra), head 'Kinetics (KD)' of the binning table; the sheet prints no unit, the four other KD values of the same head equal the KD (M) of Table 1 on Hu/Cy/Rh ROR1-His.

T3 sequence (Q9Z139 30-403 limits assumed): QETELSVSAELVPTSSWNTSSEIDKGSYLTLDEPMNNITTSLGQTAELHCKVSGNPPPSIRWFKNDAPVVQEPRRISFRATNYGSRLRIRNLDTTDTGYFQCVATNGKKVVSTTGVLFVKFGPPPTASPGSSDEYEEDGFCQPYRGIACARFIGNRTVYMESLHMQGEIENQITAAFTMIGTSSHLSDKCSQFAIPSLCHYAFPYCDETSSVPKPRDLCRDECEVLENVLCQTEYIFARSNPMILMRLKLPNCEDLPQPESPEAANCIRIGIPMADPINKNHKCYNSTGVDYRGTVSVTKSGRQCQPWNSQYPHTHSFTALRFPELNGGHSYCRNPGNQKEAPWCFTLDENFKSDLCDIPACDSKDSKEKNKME

B1: UC961 (ATX-P-453) (antibody, V domains shown)
VH: QVQLQESGPGLVKPSQTLSLTCTVSGYAFTAYNIHWVRQAPGQGLEWMGSFDPYDGGSSYNQKFKDRLTISKDTSKNQVVLTMTNMDPVDTATYYCARGWYYFDYWGHGTLVTVSS
VL: DIVMTQTPLSLPVTPGEPASISCRASKSISKYLAWYQQKPGQAPRLLIYSGSTLQSGIPPRFSGSGYGTDFTLTINNIESEDAAYYFCQQHDESPYTFGEGTKVEIK
As usually defined, the Kd is the free concentration of one partner at which half of the binding sites on the other are occupied at equilibrium, for simple one-to-one binding. A low value points to a tighter complex. As usually defined, the koff is the first-order rate constant of dissociation. A lower koff goes with slow dissociation. For orientation: kon means a measure of how fast the partners come together. A low value points to slower complex formation. Take B1: in [1], the “Cellular Internalization, JeKo-1 (%)” value is 75% and the “Cellular Internalization, MDA-MB-468(%)” value came to 80%. In the assay with Hu/Cy/Rh ROR1 - His [2], this molecule returned a Kd of 4.69 nM, a koff of 0.00591 s⁻¹ and a kon of 1.26e+06 M⁻¹ s⁻¹.

B2: ATX-P-885 (antibody, human IgG1, kappa, V domains shown)
VH: QVQLQQWGAGLLKPSETLSLTCAVYGGSFSGYYWSWIRQPPGKGLEWIGEINHSGSTNYNPSLKSRVTISVDTSKNQFSLKLSSVTAADTAVYYCAREGVYEDYWGQGTLVTVSS
VL: EIVLTQSPATLSLSPGERATLSCRASQSVSNYLAWYQQKPGQAPRLLIYDAYNRATGIPARFSGSGSGTDFTLTISSLEPEDFAVYYCQQRSNWPLTFGQGTRLEIKR
notes: human IgG1 heavy chain and kappa light chain
The EC50 (read off the curve) is the midpoint of the concentration-response curve. Consider B2, for which the “Cellular Internalization, JeKo-1 (%)” value in assay [1] was 75%. In assay [1], the “Cellular Internalization, MDA-MB-468(%)” value turned out to be 89%. Further, the results for the Kd in the assay with Mouse ROR1 - His and in the assay with Hu/Cy/Rh ROR1 - His [2] were 45.3 nM and 10.9 nM, respectively. In addition, the off-rate (koff) with Mouse ROR1 - His came out at 0.00132 s⁻¹; in the assay with Hu/Cy/Rh ROR1 - His [2], 0.00295 s⁻¹. In addition, the figures for the kon with Mouse ROR1 - His and with Hu/Cy/Rh ROR1 - His [2] were 29200 M⁻¹ s⁻¹ and 270000 M⁻¹ s⁻¹, respectively. Moreover, the saturating concentration in assay [3] was found to be 74 nM. For the same molecule, the “EC50 (read off the curve)” value was approximately 0.3 nM in assay [4], approximately 2 nM in assay [5] and approximately 3 nM in assay [6]. Moreover, the “IC50 (read off the curve)” value in assay [7] was approximately 3 nM.

B3: ATX-P-875 (antibody, human IgG1, kappa, V domains shown)
VH: not shown
VL: DIQMTQSPSSLSASVGDRVTITCRASQSISSYLNWYQQKPGKAPKLLIYAASSLQSGVPSRFSGSGSGTDFTLTISSLQPEDFATYYCQQYDNLPITFGQGTRLEIKR
notes: as for B2
Consider B3, for which, in assay [1], the “Cellular Internalization, JeKo-1 (%)” value was 75% and the “Cellular Internalization, MDA-MB-468(%)” value stood at 89%. The saturating concentration in assay [3] turned out to be 74 nM. Moreover, the “EC50 (read off the curve)” value in assay [5] is approximately 0.6 nM. In addition, in assay [6], the “EC50 (read off the curve)” value is approximately 0.9 nM. Also, the “IC50 (read off the curve)” value in assay [8] was approximately 0.7 nM.

B4: 4A5 (antibody, V domains shown)
VH: EVKLVESGGGLVKPGGSLKLSCAASGFTFSSYAMSWVRQIPEKRLEWVASISRGGTTYYPDSVKGRFTISRDNVRNILYLQMSSLRSEDTAMYYCGRYDYDGYYAMDYWGQGTSVTVSS
VL: DIKMTQSPSSMYASLGERVTITCKASPDINSYLSWFQQKPGKSPKTLIYRANRLVDGVPSRFSGGGSGQDYSLTINSLEYEDMGIYYCLQYDEFPYTFGGGTKLEMK
For the molecule B4, in the assay with Hu/Cy/Rh ROR1 - His [9], the dissociation constant (Kd) was found to be 2.81 nM.
